{
  "source": "paper PMC7747229",
  "about": "(Nature, 2020)",
  "proteins": {"B1": {"name": "KAT1em (KAT1 from Arabidopsis thaliana, amino acids M1-S502) (domain or fragment)", "chain": "not shown"}},
  "biological_target": "the molecule itself",
  "test": "cryo-EM structure",
  "note": "Where “and” joins values, the source holds several entries; their conditions need not be identical. Identical values can stand only once.",
  "data": [
    {"protein": "B1", "values": [
      {"measurement": "stoichiometry N", "result": "8 and 4"}
    ]}
  ]
}
